{"source": "patent US20070065895", "proteins": {"B1": {"name": "ADAMTS-13 (von Willebrand factor cleaving enzyme), as present in normal plasma (protein)", "chain": "AAGGILHLELLVAVGPDVFQAHQEDTERYVLTNLNIGAELLRDPSLGAQFRVHLVKMVILTEPEGAPNITANLTSSLLSVCGWSQTINPEDDTDPGHADLVLYITRFDLELPDGNRQVRGVTQLGGACSPTWSCLITEDTGFDLGVTIAHEIGHSFGLEHDGAPGSGCGPSGHVMASDGAAPRAGLAWSPCSRRQLLSLLSAGRARCVWDPPRPQPGSAGHPPDAQPGLYYSANEQCRVAFGPKAVACTFAREHLDMCQALSCHTDPLDQSSCSRLLVPLLDGTECGVEKWCSKGRCRSLVELTPIAAVHGRWSSWGPRSPCSRSCGGGVVTRRRQCNNPRPAFGGRACVGADLQAEMCNTQACEKTQLEFMSQQCARTDGQPLRSSPGGASFYHWGAAVPHSQGDALCRHMCRAIGESFIMKRGDSFLDGTRCMPSGPREDGTLSLCVSGSCRTFGCDGRMDSQQVWDRCQVCGGDNSTCSPRKGSFTAGRAREYVTFLTVTPNLTSVYIANHRPLFTHLAVRIGGRYVVAGKMSISPNTTYPSLLEDGRVEYRVALTEDRLPRLEEIRIWGPLQEDADIQVYRRYGEEYGNLTRPDITFTYFQPKPRQAWVWAAVRGPCSVSCGAGLRWVNYSCLDQARKELVETVQCQGSQQPPAWPEACVLEPCPPYWAVGDFGPCSASCGGGLRERPVRCVEAQGSLLKTLPPARCRAGAQQPAVALETCNPQPCPARWEVSEPSSCTSAGGAGLALENETCVPGADGLEAPVTEGPGSVDEKLPAPEPCVGMSCPPGWGHLDATSAGEKAPSPWGSIRTGAQAAHVWTPAAGSCSVSCGRGLMELRFLCMDSALRVPVQEELCGLASKPGSRREVCQAVPCPARWQYKLAACSVSCGRGVVRRILYCARAHGEDDGEEILLDTQCQGLPRPEPQEACSLEPCPPRWKVMSLGPCSASCGLGTARRSVACVQLDQGQDVEVDEAACAALVRPEASVPCLIADCTYRWHVGTWMECSVSCGDGIQRRRDTCLGPQAQAPVPADFCQHLPKPVTVRGCWAGPCVGQGTPSLVPHEEAAAPGRTTATPAGASLEWSQARGLLFSPAPQPRRLLPGPQENSVQSSACGRQHLEPTGTIDMRGPGQADCAVAIGRPLGEVVTLRVLESSLNCSAGDMLLLWGRLTWRKMCRKLLDMTFSSKTNTLVVRQRCGRPGGGVLLRYGSQLAPETFYRECDMQLFGPWGEIVSPSLSPATSNAGGCRLFINVAPHARIAIHALATNMGAGTEGANASYILIRDTHSLRTTAFHGQQVLYWESESSQAEMEFSEGFLKAQASLRGQYWTLQSWVPEMQDPQSWKGKEGT"}}, "key": {"GST-Asp1596-Arg1659-H": {"target": "T1, GST-Asp1596-Arg1659-H", "T1 chain": "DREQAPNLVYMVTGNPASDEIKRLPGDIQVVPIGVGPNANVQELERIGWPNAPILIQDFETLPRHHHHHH"}, "GST-Asp1587-Arg1668-H": {"target": "T2, GST-Asp1587-Arg1668-H", "T2 chain": "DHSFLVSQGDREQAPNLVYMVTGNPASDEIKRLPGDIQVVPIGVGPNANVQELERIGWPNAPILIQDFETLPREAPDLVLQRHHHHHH"}, "GST-Glu1554-Arg1668-H": {"target": "T3, GST-Glu1554-Arg1668-H", "T3 chain": "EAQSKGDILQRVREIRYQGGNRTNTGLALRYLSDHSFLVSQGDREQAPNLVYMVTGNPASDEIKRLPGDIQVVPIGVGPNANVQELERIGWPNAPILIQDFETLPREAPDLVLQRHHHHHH"}, "GST-Asp1459-Arg1668-H": {"target": "T4, GST-Asp1459-Arg1668-H", "T4 chain": "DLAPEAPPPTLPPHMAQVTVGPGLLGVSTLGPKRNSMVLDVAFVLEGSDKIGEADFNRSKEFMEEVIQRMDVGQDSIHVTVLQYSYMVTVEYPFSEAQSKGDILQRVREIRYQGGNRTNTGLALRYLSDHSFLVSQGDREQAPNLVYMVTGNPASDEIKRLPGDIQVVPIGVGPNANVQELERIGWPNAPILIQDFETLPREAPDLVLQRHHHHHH"}, "GST-Asp1596-Arg1668-H": {"target": "T5, GST-Asp1596-Arg1668-H", "T5 chain": "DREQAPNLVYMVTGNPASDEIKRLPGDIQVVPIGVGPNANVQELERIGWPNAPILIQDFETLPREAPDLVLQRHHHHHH"}}, "data": [{"protein": "B1", "values": [{"measurement": "cleavage fragment after 2 h reaction with normal plasma at 37 C (SDS-PAGE, western blot with anti-GST antibody)", "setting": "GST-Asp1596-Arg1659-H", "result": "did not give the fragment or was difficult to give the fragment"}, {"measurement": "cleavage fragment after 2 h reaction with normal plasma at 37 C (SDS-PAGE, western blot with anti-GST antibody)", "setting": "GST-Asp1587-Arg1668-H", "result": "the expected fragment (indicated by the arrowheads in the figure) was clearly yielded"}, {"measurement": "cleavage fragment after 2 h reaction with normal plasma at 37 C (SDS-PAGE, western blot with anti-GST antibody)", "setting": "GST-Glu1554-Arg1668-H", "result": "a very faint band was produced at the expected position"}, {"measurement": "cleavage fragment after 2 h reaction with normal plasma at 37 C (SDS-PAGE, western blot with anti-GST antibody)", "setting": "GST-Asp1459-Arg1668-H", "result": "did not give the fragment or was difficult to give the fragment"}, {"measurement": "cleavage fragment after 2 h reaction with normal plasma at 37 C (SDS-PAGE, western blot with anti-GST antibody)", "setting": "GST-Asp1596-Arg1668-H", "result": "the expected fragment (indicated by the arrowheads in the figure) was clearly yielded"}, {"measurement": "cleavage fragment after reaction with plasma of TTP patients and family members against normal plasma (SDS-PAGE, western blot with anti-GST antibody)", "setting": "GST-Asp1596-Arg1668-H", "result": "When each of plasma samples from two patients was reacted with GST-Asp^1596Arg^1668H, there was not detected the fragment which is yielded by the reaction with normal plasma; with plasma of about one-half ADAMTS-13 activity the fragment was yielded at smaller amounts than with the normal plasma"}]}]}
